Measurements taken from patent publication US20160024487.

Experiments:
[1] = target: T1, Lys(Dnp)-ATNATRQPRIVGG-Lys(Abz)
T1 chain: KATNATRQPRIVGGK

[2] = target: T2, Lys(Dnp)-ATNATDWPRIVGG-Lys(Abz)
T2 chain: KATNATDWPRIVGGK

[3] = target: T3, Lys(Dnp)-DQVTVAMTPRIVGG-Lys(Abz)
T3 chain: KDQVTVAMTPRIVGGK

[4] = target: T4, Lys(Dnp)-STPSILPAPRIVGG-Lys(Abz)
T4 chain: KSTPSILPAPRIVGGK

[5] = target: T5, Lys(Dnp)-NESTTKIKPRIVGG-Lys(Abz)
T5 chain: KNESTTKIKPRIVGGK

[6] = target: T6, Lys(Dnp)-SEYQTFFNPRIVGG-Lys(Abz)
T6 chain: KSEYQTFFNPRIVGGK

[7] = target: T7, Lys(Dnp)-HTHHAPLSPRIVGG-Lys(Abz)
T7 chain: KHTHHAPLSPRIVGGK

[8] = target: T8, Lys(Dnp)-YDEDENQSPRIVGG-Lys(Abz)
T8 chain: KYDEDENQSPRIVGGK

[9] = target: T9, Lys(Dnp)-TNATLDPRIVGG-Lys(Abz)
T9 chain: KTNATLDPRIVGGK

[10] = target: T10, Lys(Dnp)-ATNATDIPRIVGG-Lys(Abz)
T10 chain: KATNATDIPRIVGGK

[11] = target: T11, Lys(Dnp)-ATLDPRIVGG-Lys(Abz)
T11 chain: KATLDPRIVGGK

[12] = target: T12, Lys(Dnp)-DFLAEGGGVRIVGG-Lys(Abz)
T12 chain: KDFLAEGGGVRIVGGK

[13] = target: T13, Lys(Dnp)-ATNATDPPRIVGG-Lys(Abz)
T13 chain: KATNATDPPRIVGGK

[14] = target: T14, Lys(Dnp)-ATNATKPPRIVGG-Lys(Abz)
T14 chain: KATNATKPPRIVGGK

[15] = target: T15, Lys(Dnp)-ATNATDKPRIVGG-Lys(Abz)
T15 chain: KATNATDKPRIVGGK

[16] = target: T16, Lys(Dnp)-ASTAVVIAGRIVGG-Lys(Abz)
T16 chain: KASTAVVIAGRIVGGK

[17] = target: T17, Lys(Dnp)-EDQEDQVDPRIVGG-Lys(Abz)
T17 chain: KEDQEDQVDPRIVGGK

[18] = target: T18, Lys(Dnp)-NRLAAALGIRIVGG-Lys(Abz)
T18 chain: KNRLAAALGIRIVGGK

[19] = target: T19, Lys(Dnp)-RGDSVVYGLRIVGG-Lys(Abz)
T19 chain: KRGDSVVYGLRIVGGK

[20] = target: T20, Lys(Dnp)-ATNATNPPRIVGG-Lys(Abz)
T20 chain: KATNATNPPRIVGGK

[21] = target: T21, Lys(Dnp)-LSKNNAIEPRIVGG-Lys(Abz)
T21 chain: KLSKNNAIEPRIVGGK

[22] = target: T22, Lys(Dnp)-ATNATENPRIVGG-Lys(Abz)
T22 chain: KATNATENPRIVGGK

[23] = target: T23, Lys(Dnp)-NLAKPTLPIKIVGG-Lys(Abz)
T23 chain: KNLAKPTLPIKIVGGK

[24] = target: T24, Lys(Dnp)-DFLAEGGGPRIVGG-Lys(Abz)
T24 chain: KDFLAEGGGPRIVGGK

[25] = target: T25, Lys(Dnp)-TVELQGVVPRIVGG-Lys(Abz)
T25 chain: KTVELQGVVPRIVGGK

[26] = target: T26, Lys(Dnp)-PDNIAAWYLRIVGG-Lys(Abz)
T26 chain: KPDNIAAWYLRIVGGK

[27] = target: T27, Lys(Dnp)-EDSDRAIEGRIVGG-Lys(Abz)
T27 chain: KEDSDRAIEGRIVGGK

[28] = target: T28, Lys(Dnp)-DNEEGFFSARIVGG-Lys(Abz)
T28 chain: KDNEEGFFSARIVGGK

[29] = target: T29, Lys(Dnp)-ATNATNDPRIVGG-Lys(Abz)
T29 chain: KATNATNDPRIVGGK

[30] = target: T30, Lys(Dnp)-ATNATDSPRIVGG-Lys(Abz)
T30 chain: KATNATDSPRIVGGK

[31] = target: T31, Lys(Dnp)-QISNDTVSPRIVGG-Lys(Abz)
T31 chain: KQISNDTVSPRIVGGK

[32] = target: T32, Lys(Dnp)-ATNATQPPRIVGG-Lys(Abz)
T32 chain: KATNATQPPRIVGGK

[33] = target: T33, Lys(Dnp)-ATNATLPPRIVGG-Lys(Abz)
T33 chain: KATNATLPPRIVGGK

B1: Human plasma purified Factor Xa (Molecular Innovations, Inc) (protein)
chain 1: ANSFLEEMKKGHLERECMEETCSYEEAREVFEDSDKTNEFWNKYKDGDQCETSPCQNQGKCKDGLGEYTCTCLEGFEGKNCELFTRKLCSLDNGDCDQFCHEEQNSVVCSCARGYTLADNGKACIPTGPYPCGKQTLERRKR
chain 2: IVGGQECKDGECPWQALLINEENEGFCGGTILSEFYILTAAHCLYQAKRFKVRVGDRNTEQEEGGEAVHEVEVVIKHNRFTKETYDFDIAVLRLKTPITFRMNVAPACLPERDWAESTLMTQKTGIVSGFGRTHEKGRQSTRLKMLEVPYVDRNSCKLSSSFIITQNMFCAGYDTKQEDACQGDSGGPHVTRFKDTYFVTGIVSWGEGCARKGKYGIYTKVTAFLKWIDRSMKTRGLPKAKSHAPEVITSSPLK
FXa kcat/KM [1]: 4500 M⁻¹ s⁻¹
FXa kcat/KM [2]: 7.2 M⁻¹ s⁻¹
FXa kcat/KM [3]: 470 M⁻¹ s⁻¹
FXa kcat/KM [4]: 230 M⁻¹ s⁻¹
FXa kcat/KM [5]: 36 M⁻¹ s⁻¹
FXa kcat/KM [6]: 140 M⁻¹ s⁻¹
FXa kcat/KM [7]: 100 M⁻¹ s⁻¹
FXa kcat/KM [8]: 320 M⁻¹ s⁻¹
FXa kcat/KM [9]: 860 M⁻¹ s⁻¹
FXa kcat/KM [10]: 41 M⁻¹ s⁻¹
FXa kcat/KM [11]: 940 M⁻¹ s⁻¹
FXa kcat/KM [12]: 3.4 M⁻¹ s⁻¹
FXa kcat/KM [13]: 1.6 M⁻¹ s⁻¹
FXa kcat/KM [14]: 8.7 M⁻¹ s⁻¹
FXa kcat/KM [15]: 11 M⁻¹ s⁻¹
FXa kcat/KM [16]: 2.1 M⁻¹ s⁻¹
FXa kcat/KM [17]: 13 M⁻¹ s⁻¹
FXa kcat/KM [18]: 350 M⁻¹ s⁻¹
FXa kcat/KM [19]: 1.7 M⁻¹ s⁻¹
FXa kcat/KM [20]: 2.9 M⁻¹ s⁻¹
FXa kcat/KM [21]: 1000 M⁻¹ s⁻¹
FXa kcat/KM [22]: 3.3 M⁻¹ s⁻¹
FXa kcat/KM [23]: 3 M⁻¹ s⁻¹
FXa kcat/KM [24]: 5.8 M⁻¹ s⁻¹
FXa kcat/KM [25]: 100 M⁻¹ s⁻¹
FXa kcat/KM [26]: 15 M⁻¹ s⁻¹
FXa kcat/KM [27]: 1900 M⁻¹ s⁻¹
FXa kcat/KM [28]: 230 M⁻¹ s⁻¹
FXa kcat/KM [29]: 30 M⁻¹ s⁻¹
FXa kcat/KM [30]: 4.4 M⁻¹ s⁻¹
FXa kcat/KM [31]: 340 M⁻¹ s⁻¹
FXa kcat/KM [32]: 9.5 M⁻¹ s⁻¹
FXa kcat/KM [33]: 1.6 M⁻¹ s⁻¹
